The results in this text go back to paper PMC3775154.

The Kd is a measure of binding affinity in units of concentration.

What all share (experiment): SPR
For orientation: In SPR one partner is held on a chip, and binding of the other changes the refractive index at the surface.

Test [1] deals with recombinant human FcγRIIIa F158 (human) (UniProt P08637).
Test [2] concerns the target recombinant human FcγRIIIb (human) (UniProt O75015).
Test [3] deals with recombinant human FcγRIIb (human) (UniProt P31994).
For test [4], the target named is recombinant human FcRn (human) (UniProt P55899).
For test [5], the target named is recombinant human FcγRIIIa V158 (human).
Test [6] has as its target recombinant human FcγRIa (human) (UniProt P12314).
Sequence of UniProt P12314 (P12314 16-374): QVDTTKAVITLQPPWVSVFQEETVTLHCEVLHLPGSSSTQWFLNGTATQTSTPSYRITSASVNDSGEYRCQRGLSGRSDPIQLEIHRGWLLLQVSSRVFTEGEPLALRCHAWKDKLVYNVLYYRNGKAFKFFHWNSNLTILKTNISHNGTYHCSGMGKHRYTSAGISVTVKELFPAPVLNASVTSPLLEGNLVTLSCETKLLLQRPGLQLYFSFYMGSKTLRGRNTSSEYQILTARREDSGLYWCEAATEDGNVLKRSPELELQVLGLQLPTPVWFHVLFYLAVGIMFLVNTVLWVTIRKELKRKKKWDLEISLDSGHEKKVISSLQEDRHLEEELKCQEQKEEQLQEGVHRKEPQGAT

Sequence of UniProt P31994 (P31994 43-310): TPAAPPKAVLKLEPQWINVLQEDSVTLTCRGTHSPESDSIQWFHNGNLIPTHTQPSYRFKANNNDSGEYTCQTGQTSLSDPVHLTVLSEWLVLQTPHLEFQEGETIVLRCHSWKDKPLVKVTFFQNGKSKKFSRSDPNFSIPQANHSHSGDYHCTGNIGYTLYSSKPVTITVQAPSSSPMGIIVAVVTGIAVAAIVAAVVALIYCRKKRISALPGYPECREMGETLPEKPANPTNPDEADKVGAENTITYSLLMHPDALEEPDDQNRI
Sequence of UniProt P55899 (P55899 24-297): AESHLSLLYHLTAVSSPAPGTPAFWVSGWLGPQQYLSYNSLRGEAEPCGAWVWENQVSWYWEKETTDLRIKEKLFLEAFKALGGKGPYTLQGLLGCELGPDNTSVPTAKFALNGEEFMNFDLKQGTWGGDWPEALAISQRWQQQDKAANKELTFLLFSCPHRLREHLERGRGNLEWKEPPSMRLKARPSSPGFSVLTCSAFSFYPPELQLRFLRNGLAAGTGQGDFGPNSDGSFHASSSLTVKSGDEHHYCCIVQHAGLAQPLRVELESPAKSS
Sequence of recombinant human FcγRIIIa V158 (human) (P08637 17-208): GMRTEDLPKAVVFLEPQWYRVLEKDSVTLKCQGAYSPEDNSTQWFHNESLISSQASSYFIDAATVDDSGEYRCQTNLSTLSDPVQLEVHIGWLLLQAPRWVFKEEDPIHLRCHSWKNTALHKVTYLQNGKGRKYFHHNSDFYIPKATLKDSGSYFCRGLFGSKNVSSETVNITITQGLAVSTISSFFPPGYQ
Sequence of UniProt O75015 (O75015 17-200): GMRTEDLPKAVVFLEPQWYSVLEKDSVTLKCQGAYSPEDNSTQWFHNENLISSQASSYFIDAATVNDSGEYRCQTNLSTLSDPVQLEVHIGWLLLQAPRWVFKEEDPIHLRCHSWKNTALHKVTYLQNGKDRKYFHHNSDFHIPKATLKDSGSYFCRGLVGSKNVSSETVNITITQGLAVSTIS

As for originator rituximab (antibody), the Kd in test [1] is 7.4 to 10.3 µM; in test [2], 9.2 to 11.7 µM; in test [3] it was 11.4 to 12.8 µM; in test [4], 0.55 to 0.58 µM; in test [5], 3.5 to 4.9 µM; in test [6], 0.0104 to 0.0118 µM.
For the substance “proposed biosimilar rituximab GP2013 (antibody)”, the Kd lay within 8.5 to 10.9 µM in test [1]; 9.9 to 12.4 µM in test [2]; 11 to 12.7 µM in test [3]; 0.54 to 0.58 µM in test [4]; 4.2 to 5 µM in test [5]; 0.0109 to 0.0124 µM in test [6].
